Assay [1] has as its target T1, recombinant human PD-1 (hPD-1) (human, UniProt Q15116 25-167, limits assumed). Put plainly: competition ELISA: antibody titrated 3x and mixed with biotinylated hPD-L1-Fc (1 ug/mL), loaded on hPD-1-coated wells; residual hPD-L1-Fc detected with streptavidin-HRP, A450. The source says:
The plate was developed with TMB and Stop buffer and the absorbance at 450 nm was read using a SpectraMax plate reader. A450 absorbance curves and IC50S were generated using GraphPad Prism software.
In general terms: An ELISA detects its analyte on a solid surface through an enzyme-linked reagent.

In assay [2] the target is T1, recombinant human PD-1 (hPD-1). Nature of the assay: BLI (ForteBio Octet); ASC captured on AHC biosensor, hPD-1 titrated from 100 nM in a 2x series; 1:1 fit. The procedure: ASCs were captured on an AHC (Anti-human IgG-Capture) biosensor. hPD-1 analytes were titrated from 100 nM in a 2× series dilution. The signal was subtracted with buffer reference and aligned to baseline. KD, Kon and Koff values were generated using a 1:1 fitting model.

In assay [3] the target is human PD-1 expressed on Jurkat T cells (human, UniProt Q15116 25-288). Nature of the assay: cell-based or functional assay.
human PD-1 expressed on Jurkat T cells, sequence (Q15116 25-288): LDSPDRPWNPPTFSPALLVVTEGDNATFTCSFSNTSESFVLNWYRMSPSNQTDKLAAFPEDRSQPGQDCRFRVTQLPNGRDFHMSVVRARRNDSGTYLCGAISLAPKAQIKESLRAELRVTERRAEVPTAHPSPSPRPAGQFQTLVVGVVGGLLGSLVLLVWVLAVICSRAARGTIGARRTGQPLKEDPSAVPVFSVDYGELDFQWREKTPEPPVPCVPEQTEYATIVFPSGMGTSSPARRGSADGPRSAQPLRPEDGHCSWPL

T1 sequence (Q15116 25-167 limits assumed): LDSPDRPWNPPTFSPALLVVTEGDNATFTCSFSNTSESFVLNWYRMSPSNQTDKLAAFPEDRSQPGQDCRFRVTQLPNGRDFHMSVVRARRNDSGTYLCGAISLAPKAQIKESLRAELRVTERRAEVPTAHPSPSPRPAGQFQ

B1: ASC #3 (Janus anti-PD-1 antibody sialidase conjugate) (antibody, human IgG1, kappa, N297A)
light: EIVLTQSPATLSLSPGERATLSCRASKGVSTSGYSYLHWYQQKPGQAPRLLIYLASYLESGVPARFSGSGSGTDFTLTISSLEPEDFAVYYCQHSRDLPLTFGGGTKVEIKRTVAAPSVFIFPPSDEQLKSGTASVVCLLNNFYPREAKVQWKVDNALQSGNSQESVTEQDSKDSTYSLSSTLTLSKADYEKHKVYACEVTHQGLSSPVTKSFNRGEC
heavy: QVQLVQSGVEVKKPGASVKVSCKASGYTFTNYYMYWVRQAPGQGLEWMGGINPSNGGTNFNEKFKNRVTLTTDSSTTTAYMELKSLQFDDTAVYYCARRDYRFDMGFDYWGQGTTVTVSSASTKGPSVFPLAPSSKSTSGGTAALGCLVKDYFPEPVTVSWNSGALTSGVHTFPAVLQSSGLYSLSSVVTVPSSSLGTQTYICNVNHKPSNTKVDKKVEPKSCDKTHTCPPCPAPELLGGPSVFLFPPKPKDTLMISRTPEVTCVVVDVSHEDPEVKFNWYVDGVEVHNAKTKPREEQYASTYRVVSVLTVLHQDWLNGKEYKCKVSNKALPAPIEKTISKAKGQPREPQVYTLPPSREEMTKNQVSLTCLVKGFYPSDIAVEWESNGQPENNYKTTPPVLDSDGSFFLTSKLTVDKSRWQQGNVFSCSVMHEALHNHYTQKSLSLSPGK
chain: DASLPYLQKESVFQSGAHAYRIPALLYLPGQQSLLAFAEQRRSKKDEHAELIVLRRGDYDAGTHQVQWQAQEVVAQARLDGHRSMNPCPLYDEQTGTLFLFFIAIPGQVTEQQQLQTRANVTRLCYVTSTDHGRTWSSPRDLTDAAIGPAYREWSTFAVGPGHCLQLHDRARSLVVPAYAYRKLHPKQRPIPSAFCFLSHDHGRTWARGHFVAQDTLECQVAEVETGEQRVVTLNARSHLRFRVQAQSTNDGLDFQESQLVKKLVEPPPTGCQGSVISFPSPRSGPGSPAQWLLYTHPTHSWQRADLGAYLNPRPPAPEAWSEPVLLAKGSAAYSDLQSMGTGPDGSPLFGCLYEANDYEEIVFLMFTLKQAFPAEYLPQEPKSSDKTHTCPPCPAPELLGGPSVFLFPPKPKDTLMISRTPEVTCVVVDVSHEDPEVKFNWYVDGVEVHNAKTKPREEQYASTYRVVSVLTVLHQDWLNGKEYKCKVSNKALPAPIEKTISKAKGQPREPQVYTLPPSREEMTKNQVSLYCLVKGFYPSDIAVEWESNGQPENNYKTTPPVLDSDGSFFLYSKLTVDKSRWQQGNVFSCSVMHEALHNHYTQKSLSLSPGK
notes: Janus format: one antibody arm (one heavy and one light chain) and one sialidase-Fc fusion, heterodimerised by knob (T366Y) and hole (Y407T) mutations; also called ASC #3-1; ASC #3-2
One may read the Kd as the free concentration of one partner at which half of the binding sites on the other are occupied at equilibrium, for simple one-to-one binding. As to B1, the “IC50 (read off the curve)” value in assay [1] was roughly 7 nM. Besides, the Kd in assay [2] stood at 10.3 nM. Moreover, in assay [3], the “EC50 (nM), fold induction of NFAT-driven luciferase” value is 7.23 nM.

The values are drawn from patent US20240059773A1 (PALLEON PHARMACEUTICALS, published 2024).
